Source: the Immune Epitope Database (IEDB)

How the values were obtained:
[1] = biological target: HLA-B*08:01; test: IEDB peptide-MHC binding, purified MHC/competitive/radioactivity; filed as Kd, often an IC50 or EC50 that approximates it; ≥ and ≤ were set here for values at or beyond the usual limits of such assays
[2] = biological target: HLA-A*11:01; test: IEDB peptide-MHC binding, purified MHC/competitive/fluorescence; ≥ and ≤ were set here for values at or beyond the usual limits of such assays
[3] = biological target: HLA-B*15:01; test: IEDB peptide-MHC binding, purified MHC/direct/fluorescence; filed as Kd, often an IC50 or EC50 that approximates it; ≥ and ≤ were set here for values at or beyond the usual limits of such assays
[4] = biological target: HLA-B*46:01; test: as above; details: source organism: Mammarenavirus lassaense
[5] = biological target: HLA-A*03:01; test: IEDB peptide-MHC binding, purified MHC/competitive/radioactivity; filed as Kd, often an IC50 or EC50 that approximates it; ≥ and ≤ were set here for values at or beyond the usual limits of such assays; details: source organism: Dengue virus 2 Peru/IQT2913/1996
[6] = biological target: HLA-A*31:01; test: as above; details: source organism: Dengue virus 2 Peru/IQT2913/1996
[7] = biological target: HLA-A*33:01; test: as above; details: source organism: Dengue virus 2 Peru/IQT2913/1996
[8] = biological target: HLA-A*68:01; test: as above; details: source organism: Dengue virus 2 Peru/IQT2913/1996
[9] = biological target: HLA-A*03:01; test: IEDB peptide-MHC binding, purified MHC/competitive/fluorescence; filed as Kd, often an IC50 or EC50 that approximates it; ≥ and ≤ were set here for values at or beyond the usual limits of such assays
[10] = biological target: HLA-A*11:01; test: IEDB peptide-MHC binding, purified MHC/direct/fluorescence; filed as Kd, often an IC50 or EC50 that approximates it; ≥ and ≤ were set here for values at or beyond the usual limits of such assays
[11] = biological target: HLA-B*07:02; test: as above
[12] = biological target: HLA-B*08:01; test: as above
[13] = biological target: HLA-A*02:01; test: IEDB peptide-MHC binding, purified MHC/competitive/radioactivity; filed as Kd, often an IC50 or EC50 that approximates it; ≥ and ≤ were set here for values at or beyond the usual limits of such assays
[14] = biological target: HLA-A*02:01; test: IEDB peptide-MHC binding, purified MHC/competitive/fluorescence; filed as Kd, often an IC50 or EC50 that approximates it; ≥ and ≤ were set here for values at or beyond the usual limits of such assays; details: source organism: Pan troglodytes
[15] = biological target: HLA-B*27:03; test: as above; details: source organism: Pan troglodytes
[16] = biological target: HLA-A*02:02; test: IEDB peptide-MHC binding, purified MHC/competitive/radioactivity; filed as Kd, often an IC50 or EC50 that approximates it; ≥ and ≤ were set here for values at or beyond the usual limits of such assays; details: source organism: Trypanosoma cruzi
[17] = biological target: HLA-A*02:03; test: as above; details: source organism: Trypanosoma cruzi
[18] = biological target: HLA-A*02:06; test: as above; details: source organism: Trypanosoma cruzi
[19] = biological target: HLA-A*68:02; test: as above; details: source organism: Trypanosoma cruzi
[20] = biological target: HLA-A*02:01; test: IEDB peptide-MHC binding, purified MHC/competitive/fluorescence; ≥ and ≤ were set here for values at or beyond the usual limits of such assays; details: source organism: Zaire ebolavirus
[21] = biological target: HLA-A*24:02; test: as above; details: source organism: Zaire ebolavirus
[22] = biological target: HLA-B*27:05; test: IEDB peptide-MHC binding, purified MHC/direct/fluorescence; filed as Kd, often an IC50 or EC50 that approximates it; ≥ and ≤ were set here for values at or beyond the usual limits of such assays
[23] = biological target: HLA-A*01:01; test: as above; details: source organism: Giardia lamblia ATCC 50803
[24] = biological target: HLA-A*02:01; test: as above; details: source organism: Giardia lamblia ATCC 50803
[25] = biological target: HLA-A*03:01; test: as above; details: source organism: Giardia lamblia ATCC 50803
[26] = biological target: HLA-A*26:01; test: as above; details: source organism: Giardia lamblia ATCC 50803
[27] = biological target: HLA-A*69:01; test: as above; details: source organism: Giardia lamblia ATCC 50803
[28] = biological target: HLA-B*40:01; test: as above; details: source organism: Giardia lamblia ATCC 50803
[29] = biological target: HLA-B*58:01; test: as above; details: source organism: Giardia lamblia ATCC 50803
[30] = source organism: Dengue virus 2 Jamaica/1409/1983
[31] = source organism: Sudan ebolavirus
[32] = source organism: Vaccinia virus WR
[33] = source organism: Zaire ebolavirus
[34] = source organism: Giardia lamblia ATCC 50803

LLILCVTQVL
Kd [1, 30]: 979 nM

LLLMRTTWA
Kd ([1]; source organism: Dengue virus 4 Philippines/H241/1956): 18.5 nM

LMRRGDLPV
Kd [1, 30]: 17.8 nM

LMWKQITPEL
Kd [1, 30]: 1230 nM

LSNTTGRLI
IC50 [2, 31]: 55500 nM

LYQPSSGCY
Kd ([3]; source organism: Mammarenavirus lassaense): 1070 nM | Kd [4]: ≥ 20000 nM

MLINRFTMR
Kd [5]: 57 nM | Kd [6]: 4.29 nM | Kd [7]: 20.4 nM | Kd [8]: 17.7 nM | Kd ([1]; source organism: Dengue virus 2 Peru/IQT2913/1996): 906 nM

MQSLKFNRA
Kd [1, 32]: 307 nM

MVYKLWFKY
Kd ([9]; source organism: Entamoeba dispar SAW760): 14100 nM

NKKRFFSDV
Kd [1, 32]: 8720 nM

NNSWKFNSE
Kd [1, 32]: 129 nM

NPKTPKYKF
Kd ([10]; source organism: SARS-CoV1): 3960 nM | Kd ([11]; source organism: SARS-CoV1): ≥ 28600 nM | Kd ([12]; source organism: SARS-CoV1): 1150 nM

PENITTAVK
IC50 [2, 31]: ≥ 178000 nM

PRRCLKPVIL
Kd ([1]; source organism: Dengue virus 1 Brazil/97-11/1997): 2720 nM

RAAGLQDCT
Kd ([13]; source organism: Hepatitis C virus (isolate 1)): ≥ 50000 nM

RKNGKKVIQL
Kd [1, 30]: 161 nM

RVLTARKTV
Kd ([11]; source organism: Ovis aries): 418 nM | Kd [14]: ≥ 20000 nM | Kd [15]: ≥ 20000 nM

SEKMRRERA
Kd [1, 32]: 169 nM

SLNRNFTLV
Kd ([13]; source organism: Trypanosoma cruzi): 23.6 nM | Kd [16]: 0.143 nM | Kd [17]: 0.0957 nM | Kd [18]: 0.69 nM | Kd [19]: 227 nM

SRFTPQFLL
IC50 [20]: ≥ 106000 nM | IC50 [2, 33]: 45400 nM | IC50 [21]: 1730 nM

SSTSRFVMF
Kd [1, 32]: 1100 nM

SVYGLMGFK
Kd ([9]; source organism: Myxoma virus): 9.2 nM

THNTPVYKL
IC50 [20]: ≥ 735000 nM | IC50 [2, 33]: 62400 nM | IC50 [21]: 17600 nM

TKTTAKEVAL
Kd ([1]; source organism: Dengue virus 4 Dominica/814669/1981): 4000 nM

TLTSDDLLI
Kd ([13]; source organism: Lassa virus Josiah): 4170 nM

VLDQIDKNK
IC50 [2, 32]: ≥ 71200 nM

YRYLRHGKL
Kd ([12]; source organism: SARS-CoV1): 104 nM | Kd ([22]; source organism: SARS-CoV1): 78.6 nM

YSFSMFMSL
Kd [1, 32]: 146 nM

YTDDYPMYK
Kd [23]: 18.9 nM | Kd [24]: ≥ 20000 nM | Kd [25]: 359 nM | Kd [10, 34]: 40 nM | Kd [26]: ≥ 20000 nM | Kd [27]: 126 nM | Kd [11, 34]: ≥ 20000 nM | Kd [12, 34]: ≥ 20000 nM | Kd [3, 34]: ≥ 20000 nM | Kd [22, 34]: ≥ 20000 nM | Kd [28]: ≥ 20000 nM | Kd [29]: ≥ 20000 nM
